Data: US20240279318A1 (NANJING LEGEND BIOTECH, published 2024)
One block for each binder: values may come before it.

Tests used:
[1] = target: T1, AFP158/HLA-A*02:01 complex (human); experiment: SPR, KD ratio to AS170036 VL1VH1;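 also: crude scFv captured on a sensor chip, peptide–HLA complex passed over at several concentrations, association then buffer dissociation, KD derived from on- and off-rates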
T1 construct: flowed over the chip in SPR; also called AFP158 pro
Method: (§1) The experiment was carried out as follows. The crude scFv protein were captured onto the sensorchip. Different concentrations (320, 160, 40 nM) of AFP158/HLA-A*02:01 complex flowed over the sensorchip surface, and were allowed to bind the antibody fragment for 100 s followed by injection of the running buffer to allow dissociation of the complex. On-rate (kd) and off-rate (kd) were calculated based on association and dissociation curve, and were used to estimate the equilibrium dissociation constant (KD).

[2] = target: T1, AFP158/HLA-A*02:01 complex; experiment: SPR, scFv captured, pMHC in flow;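 also: complex injected at several concentrations over crude scFv, association then running-buffer dissociation, KD estimated from kinetic on- and off-rate constants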
Method: as §1

Affinity increase [1]: 0.5 fold
Kd [2]: 600 nM
B2: HP58E (scFv)
scFv: QSALTQPRSVSGSPGQSVTISCAGTSSDVGSENYVSWYQQHPGKAPKLMIYQVNKRASGVPDRFSGSKSGNTASLTISGLQAEDEADYYCASYRSSDHNIVFGGGTKLTVLGGGGSGGGGSGGGGSEVQLVESGGGLVQPGGSLRLSCAASGFTFSSYAMSWVRQAPGKGLEWVSTINSGTGSEYYADSVKGRFTISRDNSKNTLYLQMNSLRAEDTAVYYCAKNFFDGSWFLGPPAMDYWGQGTLVTVSSHHHHHH
notes: AS170036 VL1VH1 scFv mutein

Affinity increase [1]: 4.7 fold
Kd [2]: 58 nM
B3: HG108M (scFv)
scFv: QSALTQPRSVSGSPGQSVTISCAGTSSDVGSENYVSWYQQHPGKAPKLMIYQVNKRASGVPDRFSGSKSGNTASLTISGLQAEDEADYYCASYRSSDHNIVFGGGTKLTVLGGGGSGGGGSGGGGSEVQLVESGGGLVQPGGSLRLSCAASGFTFSSYAMSWVRQAPGKGLEWVSTINSGTGSPYYADSVKGRFTISRDNSKNTLYLQMNSLRAEDTAVYYCAKNFFDGSWFLMPPAMDYWGQGTLVTVSSHHHHHH
notes: AS170036 VL1VH1 scFv mutein; also called AS170036 VL1VH1-VHG108M

Affinity increase [1]: 2.8 fold
Kd [2]: 96 nM
B4: HG108S (scFv)
scFv: QSALTQPRSVSGSPGQSVTISCAGTSSDVGSENYVSWYQQHPGKAPKLMIYQVNKRASGVPDRFSGSKSGNTASLTISGLQAEDEADYYCASYRSSDHNIVFGGGTKLTVLGGGGSGGGGSGGGGSEVQLVESGGGLVQPGGSLRLSCAASGFTFSSYAMSWVRQAPGKGLEWVSTINSGTGSPYYADSVKGRFTISRDNSKNTLYLQMNSLRAEDTAVYYCAKNFFDGSWFLSPPAMDYWGQGTLVTVSSHHHHHH
notes: AS170036 VL1VH1 scFv mutein; also called AS170036 VL1VH1-VHG108S

Affinity increase [1]: 0.7 fold
Kd [2]: 370 nM
B6: HG108V (scFv)
scFv: QSALTQPRSVSGSPGQSVTISCAGTSSDVGSENYVSWYQQHPGKAPKLMIYQVNKRASGVPDRFSGSKSGNTASLTISGLQAEDEADYYCASYRSSDHNIVFGGGTKLTVLGGGGSGGGGSGGGGSEVQLVESGGGLVQPGGSLRLSCAASGFTFSSYAMSWVRQAPGKGLEWVSTINSGTGSPYYADSVKGRFTISRDNSKNTLYLQMNSLRAEDTAVYYCAKNFFDGSWFLVPPAMDYWGQGTLVTVSSHHHHHH
notes: AS170036 VL1VH1 scFv mutein

Affinity increase [1]: 0.5 fold
Kd [2]: 530 nM
B7: HL107N (scFv)
scFv: QSALTQPRSVSGSPGQSVTISCAGTSSDVGSENYVSWYQQHPGKAPKLMIYQVNKRASGVPDRFSGSKSGNTASLTISGLQAEDEADYYCASYRSSDHNIVFGGGTKLTVLGGGGSGGGGSGGGGSEVQLVESGGGLVQPGGSLRLSCAASGFTFSSYAMSWVRQAPGKGLEWVSTINSGTGSPYYADSVKGRFTISRDNSKNTLYLQMNSLRAEDTAVYYCAKNFFDGSWFNGPPAMDYWGQGTLVTVSSHHHHHH
notes: AS170036 VL1VH1 scFv mutein

Affinity increase [1]: 0.7 fold
Kd [2]: 380 nM
B10: HP58A (scFv)
scFv: QSALTQPRSVSGSPGQSVTISCAGTSSDVGSENYVSWYQQHPGKAPKLMIYQVNKRASGVPDRFSGSKSGNTASLTISGLQAEDEADYYCASYRSSDHNIVFGGGTKLTVLGGGGSGGGGSGGGGSEVQLVESGGGLVQPGGSLRLSCAASGFTFSSYAMSWVRQAPGKGLEWVSTINSGTGSAYYADSVKGRFTISRDNSKNTLYLQMNSLRAEDTAVYYCAKNFFDGSWFLGPPAMDYWGQGTLVTVSSHHHHHH
notes: AS170036 VL1VH1 scFv mutein

Affinity increase [1]: 1.1 fold
Kd [2]: 240 nM
B13: HL107I (scFv)
scFv: QSALTQPRSVSGSPGQSVTISCAGTSSDVGSENYVSWYQQHPGKAPKLMIYQVNKRASGVPDRFSGSKSGNTASLTISGLQAEDEADYYCASYRSSDHNIVFGGGTKLTVLGGGGSGGGGSGGGGSEVQLVESGGGLVQPGGSLRLSCAASGFTFSSYAMSWVRQAPGKGLEWVSTINSGTGSPYYADSVKGRFTISRDNSKNTLYLQMNSLRAEDTAVYYCAKNFFDGSWFIGPPAMDYWGQGTLVTVSSHHHHHH
notes: AS170036 VL1VH1 scFv mutein

Affinity increase [1]: 0.5 fold
Kd [2]: 530 nM
B15: HG108T (scFv)
scFv: QSALTQPRSVSGSPGQSVTISCAGTSSDVGSENYVSWYQQHPGKAPKLMIYQVNKRASGVPDRFSGSKSGNTASLTISGLQAEDEADYYCASYRSSDHNIVFGGGTKLTVLGGGGSGGGGSGGGGSEVQLVESGGGLVQPGGSLRLSCAASGFTFSSYAMSWVRQAPGKGLEWVSTINSGTGSPYYADSVKGRFTISRDNSKNTLYLQMNSLRAEDTAVYYCAKNFFDGSWFLTPPAMDYWGQGTLVTVSSHHHHHH
notes: AS170036 VL1VH1 scFv mutein

Affinity increase [1]: 1.4 fold
Kd [2]: 200 nM
B17: HG108Q (scFv)
scFv: QSALTQPRSVSGSPGQSVTISCAGTSSDVGSENYVSWYQQHPGKAPKLMIYQVNKRASGVPDRFSGSKSGNTASLTISGLQAEDEADYYCASYRSSDHNIVFGGGTKLTVLGGGGSGGGGSGGGGSEVQLVESGGGLVQPGGSLRLSCAASGFTFSSYAMSWVRQAPGKGLEWVSTINSGTGSPYYADSVKGRFTISRDNSKNTLYLQMNSLRAEDTAVYYCAKNFFDGSWFLQPPAMDYWGQGTLVTVSSHHHHHH
notes: AS170036 VL1VH1 scFv mutein

Affinity increase [1]: 2 fold
Kd [2]: 140 nM
B18: HG108N (scFv)
scFv: QSALTQPRSVSGSPGQSVTISCAGTSSDVGSENYVSWYQQHPGKAPKLMIYQVNKRASGVPDRFSGSKSGNTASLTISGLQAEDEADYYCASYRSSDHNIVFGGGTKLTVLGGGGSGGGGSGGGGSEVQLVESGGGLVQPGGSLRLSCAASGFTFSSYAMSWVRQAPGKGLEWVSTINSGTGSPYYADSVKGRFTISRDNSKNTLYLQMNSLRAEDTAVYYCAKNFFDGSWFLNPPAMDYWGQGTLVTVSSHHHHHH
notes: AS170036 VL1VH1 scFv mutein; also called AS170036 VL1VH1-VHG108N

Affinity increase [1]: 0.7 fold
Kd [2]: 370 nM
B19: HL107M (scFv)
scFv: QSALTQPRSVSGSPGQSVTISCAGTSSDVGSENYVSWYQQHPGKAPKLMIYQVNKRASGVPDRFSGSKSGNTASLTISGLQAEDEADYYCASYRSSDHNIVFGGGTKLTVLGGGGSGGGGSGGGGSEVQLVESGGGLVQPGGSLRLSCAASGFTFSSYAMSWVRQAPGKGLEWVSTINSGTGSPYYADSVKGRFTISRDNSKNTLYLQMNSLRAEDTAVYYCAKNFFDGSWFMGPPAMDYWGQGTLVTVSSHHHHHH
notes: AS170036 VL1VH1 scFv mutein

The remaining lines, values behind:

B1: HG56S (scFv)
scFv: QSALTQPRSVSGSPGQSVTISCAGTSSDVGSENYVSWYQQHPGKAPKLMIYQVNKRASGVPDRFSGSKSGNTASLTISGLQAEDEADYYCASYRSSDHNIVFGGGTKLTVLGGGGSGGGGSGGGGSEVQLVESGGGLVQPGGSLRLSCAASGFTFSSYAMSWVRQAPGKGLEWVSTINSGTSSPYYADSVKGRFTISRDNSKNTLYLQMNSLRAEDTAVYYCAKNFFDGSWFLGPPAMDYWGQGTLVTVSSHHHHHH
notes: AS170036 VL1VH1 scFv mutein
Affinity increase [1]: 1.5 fold
Kd [2]: 160 nM

B5: HG56Y (scFv)
scFv: QSALTQPRSVSGSPGQSVTISCAGTSSDVGSENYVSWYQQHPGKAPKLMIYQVNKRASGVPDRFSGSKSGNTASLTISGLQAEDEADYYCASYRSSDHNIVFGGGTKLTVLGGGGSGGGGSGGGGSEVQLVESGGGLVQPGGSLRLSCAASGFTFSSYAMSWVRQAPGKGLEWVSTINSGTYSPYYADSVKGRFTISRDNSKNTLYLQMNSLRAEDTAVYYCAKNFFDGSWFLGPPAMDYWGQGTLVTVSSHHHHHH
notes: AS170036 VL1VH1 scFv mutein; also called AS170036 VL1VH1-VHG56Y
Affinity increase [1]: 6.6 fold
Kd [2]: 35 nM

B8: HG108E (scFv)
scFv: QSALTQPRSVSGSPGQSVTISCAGTSSDVGSENYVSWYQQHPGKAPKLMIYQVNKRASGVPDRFSGSKSGNTASLTISGLQAEDEADYYCASYRSSDHNIVFGGGTKLTVLGGGGSGGGGSGGGGSEVQLVESGGGLVQPGGSLRLSCAASGFTFSSYAMSWVRQAPGKGLEWVSTINSGTGSPYYADSVKGRFTISRDNSKNTLYLQMNSLRAEDTAVYYCAKNFFDGSWFLEPPAMDYWGQGTLVTVSSHHHHHH
notes: AS170036 VL1VH1 scFv mutein; also called AS170036 VL1VH1-VHG108E
Affinity increase [1]: 4.1 fold
Kd [2]: 56 nM

B9: HG56T (scFv)
scFv: QSALTQPRSVSGSPGQSVTISCAGTSSDVGSENYVSWYQQHPGKAPKLMIYQVNKRASGVPDRFSGSKSGNTASLTISGLQAEDEADYYCASYRSSDHNIVFGGGTKLTVLGGGGSGGGGSGGGGSEVQLVESGGGLVQPGGSLRLSCAASGFTFSSYAMSWVRQAPGKGLEWVSTINSGTTSPYYADSVKGRFTISRDNSKNTLYLQMNSLRAEDTAVYYCAKNFFDGSWFLGPPAMDYWGQGTLVTVSSHHHHHH
notes: AS170036 VL1VH1 scFv mutein
Affinity increase [1]: 0.7 fold
Kd [2]: 340 nM

B11: HG108A (scFv)
scFv: QSALTQPRSVSGSPGQSVTISCAGTSSDVGSENYVSWYQQHPGKAPKLMIYQVNKRASGVPDRFSGSKSGNTASLTISGLQAEDEADYYCASYRSSDHNIVFGGGTKLTVLGGGGSGGGGSGGGGSEVQLVESGGGLVQPGGSLRLSCAASGFTFSSYAMSWVRQAPGKGLEWVSTINSGTGSPYYADSVKGRFTISRDNSKNTLYLQMNSLRAEDTAVYYCAKNFFDGSWFLAPPAMDYWGQGTLVTVSSHHHHHH
notes: AS170036 VL1VH1 scFv mutein; also called AS170036 VL1VH1-VHG108A
Affinity increase [1]: 5.5 fold
Kd [2]: 42 nM

B12: HG108L (scFv)
scFv: QSALTQPRSVSGSPGQSVTISCAGTSSDVGSENYVSWYQQHPGKAPKLMIYQVNKRASGVPDRFSGSKSGNTASLTISGLQAEDEADYYCASYRSSDHNIVFGGGTKLTVLGGGGSGGGGSGGGGSEVQLVESGGGLVQPGGSLRLSCAASGFTFSSYAMSWVRQAPGKGLEWVSTINSGTGSPYYADSVKGRFTISRDNSKNTLYLQMNSLRAEDTAVYYCAKNFFDGSWFLLPPAMDYWGQGTLVTVSSHHHHHH
notes: AS170036 VL1VH1 scFv mutein
Affinity increase [1]: 1.4 fold
Kd [2]: 200 nM

B14: HG56W (scFv)
scFv: QSALTQPRSVSGSPGQSVTISCAGTSSDVGSENYVSWYQQHPGKAPKLMIYQVNKRASGVPDRFSGSKSGNTASLTISGLQAEDEADYYCASYRSSDHNIVFGGGTKLTVLGGGGSGGGGSGGGGSEVQLVESGGGLVQPGGSLRLSCAASGFTFSSYAMSWVRQAPGKGLEWVSTINSGTWSPYYADSVKGRFTISRDNSKNTLYLQMNSLRAEDTAVYYCAKNFFDGSWFLGPPAMDYWGQGTLVTVSSHHHHHH
notes: AS170036 VL1VH1 scFv mutein
Affinity increase [1]: 1.7 fold
Kd [2]: 130 nM

B16: HG108D (scFv)
scFv: QSALTQPRSVSGSPGQSVTISCAGTSSDVGSENYVSWYQQHPGKAPKLMIYQVNKRASGVPDRFSGSKSGNTASLTISGLQAEDEADYYCASYRSSDHNIVFGGGTKLTVLGGGGSGGGGSGGGGSEVQLVESGGGLVQPGGSLRLSCAASGFTFSSYAMSWVRQAPGKGLEWVSTINSGTGSPYYADSVKGRFTISRDNSKNTLYLQMNSLRAEDTAVYYCAKNFFDGSWFLDPPAMDYWGQGTLVTVSSHHHHHH
notes: AS170036 VL1VH1 scFv mutein; also called AS170036 VL1VH1-VHG108D
Affinity increase [1]: 5.5 fold
Kd [2]: 42 nM
